{"source": "paper PMC9371702", "about": "(Proceedings of the National Academy of Sciences of the …, 2022)", "target": "human CTLA-4 (as crystallised with 4003-1 (VH)) (human, UniProt P16410)", "sequence (P16410 36-154)": "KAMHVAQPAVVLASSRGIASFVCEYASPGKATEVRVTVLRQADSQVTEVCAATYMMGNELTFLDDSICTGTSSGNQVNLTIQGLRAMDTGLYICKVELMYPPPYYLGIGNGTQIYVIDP", "assay": "crystal structure", "data": [{"binder": "4003-1 (VH) (VHH) VHH: EVQLVESGGGLIQPGGSLRLSCAVSGFTVSKNYMSWVRQAPGKGLEWVSVVYSGGSKTYADSVKGRFTISRDNSKNTLYLQMNSLRAEDTAVYYCARAVPHSPSSFDIWGQGTMVTVSS", "values": [{"measurement": "binding result", "value": "binds"}]}]}
